Results published in patent US20240287489A1, “CHITINOLYTIC ENZYME-BASED PLANT PROTECTION AGENTS” (GLOBACHEM NV, priority 2021, published 2024).

Tests used:
[1] = Substrate conversion yield from residue substrate after the reaction; type: biochemical; conditions: residue substrate after the reaction relative to the starting material
Protocol: The overall substrate conversion yield was determined for all maximized solutions after determining the residue substrate after the reaction, relative to the starting material.

[2] = Reducing end assay, specific chitinase activity of expression and purification fractions; type: biochemical; conditions: chitin powder, 16 h at 30° C.
Protocol: Integrity and correctness of the constructs was confirmed by colony PCR and Sanger-sequencing. All constructs were transformed into E. coli BL21 and expressed recombinantly. Expression levels of the target enzymes were determined densitometrically after immunoblot detection for cytosolic and secreted expression. Enzymatic activity was determined for all samples using a reducing end assay. […] Furthermore, it was confirmed that these enzymes are efficiently released into the culture supernatant, rendering cell lysis unnecessary for future production cycles.
A two-step purification of the selected recombinant enzymes with PelB signal peptide form the culture supernatant was carried out with an initial ammonium sulfate precipitation step and a sequential IMAC purification of the solubilized protein precipitate. Elution fractions were pooled and an SDS-PAGE and immunoblot was prepared loading the same volume for each sample (FIG. 4). Expression levels of the five chitinases varied largely, and C1 was detected in much greater abundance relative to the others. […] The observed molecular weight of all enzymes in SDS-PAGE gel and immunoblot was not in accordance with the expected theoretical molecular weight taking into account that a 6×His tag was added C-terminally to the enzymes and in general, bands for all enzymes were detected at a higher molecular weight. For all samples, unspecific bands could detected at ˜25 kDa and ˜50 kDa after IMAC purification, most likely representing host cell protein-contaminations. The amount of protein in the culture media, ammonium sulfate concentrates and the final dialyzed elution fractions was determined using the BCA assay and the same fractions were incubated with chitin powder for 16 h at 30° C. followed by the quantification of reducing sugars to measure specific chitinase activity (Table 4.2). Thereby it was confirmed that all target enzymes were successfully enriched during purification according to the specific activity.
For the determination of enzymatic activity of recombinant chitinases, a reducing end assay was carried out [Svein et al., Carbohydr Polym, 2004. 56(1): p. 35-39.]. Fractions containing chitinases were incubated with 5% (w/v) chitin powder extracted from shrimp shells (˜400.000 g/mol; Carl Roth) in MAT buffer for 2 h in an overhead shaker at ambient temperature (standard conditions). Samples were centrifuged at 13000×g for 2 min and 40 μl of the supernatant was mixed with 40 μl 0.5 M NaOH and 40 μL of a reagent containing 1.5 mg/ml 3-Methyl-2-benzothiazolinonhydrazon and 0.75 mg/ml Dithiothreitol. Samples were incubated at 80° C. for 15 min and then thoroughly mixed with 80 μl of 0.5% (w/v) FeNH4(SO4)2)×12H2O, 0.5% (w/v) sulfamic acid and 0.25 M HCl. After cooling down to room temperature, 100 μl of the samples were measured at 620 nm. A calibration curve of N-acetyl-glucosamine was constructed freshly for each measuring cycle. One unit [U] was defined as the amount of enzyme required to release 1 μmol of reducing sugars per hour.

[3] = Substrate specificity, reducing end assay; type: biochemical; conditions: in % activity of chitin powder; 16 h at optimum conditions, 50 mg/ml substrate
Protocol: (§1) Different chitinous substrates were tested to assess the substrate affinity of the novel chitinases relative to untreated chitin powder. […] As expected, the conversion of colloidal chitin is more efficient compared to chitin powder as it provides an overall smaller particle size and thereby larger surface area. Chitosan powder (degree of acetylation: 15%) was also degraded efficiently and high chitosanase activity was observed especially for C1, C3, C4 and C5. Merely basal activity was detected when cellulose was utilized as a substrate for all enzymes.
(§2) Enzyme samples were incubated at different temperature (10-60° C., 10° C. increment) and pH (4-11, increment 1) using different buffer systems (Acetate, Tris-HCl, MES, total molar concentration 100 mM), as well as NaCl content (0, 1. 2.5, 5, 10 and 20% w/v) to determine optimum reaction conditions. All experiments were carried out at 1.0 ml scale using 2 μM of the respective enzymes and a 5% (wv) suspension of chitin powder extracted from shrimp shells (˜400.000 g/mol; Carl, Roth) in 100 mM MAT buffer. For the determination of the substrate specificity, chitin powder (5% w/v), glycol chitin (10% v/v), colloidal chitin (5% w/v), chitosan [DA 15-25%, medium molecular weight, Sigma-Aldrich] (5% w/v) and microcrystalline cellulose powder (Sigma Aldrich) (5% w/v) were investigated, respectively. The effect of several potential co-factors on activity was elucidated at a concentration of 1 mM. Additionally, the effect of detergents [SDS 0.5% (w/v), Tween-20 and Triton X-100 both at 0.5% (v/v)] and chemicals (Imidazole 100 mM, EDTA 1 mM) on enzymatic activity was assessed. Samples were incubated in a thermomixer for 16 h at 900 rpm. After incubation, samples were analyzed using the enzyme assay. Thermostability was assessed after incubation of recombinant chitinases at 60° C. for different durations followed by the quantification of residual enzyme activity under standard assay conditions.

Fusarium oxysporum = assay: Minimum inhibitory concentration (MIC) test on fungal pathogens; type: cell-based; design: key: xx = no growth/strong inhibition; x = small inhibition; conditions: start concentration 100 μg/ml
Fusarium culmorum [4] = assay: as above; type: cell-based
Protocol: The start concentration of each chitinase used in minimum inhibitory concentration (MIC) tests was 100 μg/ml.
The chitinases were further tested for their protective activity in germination tests. Briefly, the following steps were conducted: • 1. Disinfection of wheat seeds in 10% bleach for 10 minutes in a biosafety cabinet • 2. Germination on filter paper • 3. Foliar application 3 dps (days post seeding) and 1 dbi (day before infection) • 4. 4 dps: add pathogen Fusarium culmorum • 5. Monitoring germination and plant health/phytotox

Fusarium culmorum [5] = type: in vivo; conditions: wheat, foliar application 3 dps, F. culmorum added 4 dps
D. melanogaster eggs = assay: Larvae survival after treatment of D. melanogaster eggs; type: in vivo; conditions: chitinase concentrations from 10% to 0.1%
Protocol: The effects of chitinases on insects was tested on D. melanogaster eggs. Briefly, eggs were treated with chitinase 1 or a control, and larvae survival was assessed 3 days after treatment (DAT). Results for chitinase concentrations of concentration from 10% to 0.1% were as follows: […]

[6] = Substrate specificity, reducing end assay; type: biochemical; conditions: in % activity of chitin powder; 16 h at optimum conditions, 50 mg/ml substrate; remark: listed apart in the source
Protocol: as §1
The preparation of colloidal chitin was similar to the method described by Murthy and Bleakley with some minor differences [Murthy et al., Microbiol., 2012. 10(2): p. 1-5.]. Chitin powder (Carl Roth) was dissolved in concentrated hydrochloric acid (HCl) (5 g in 100 mL) and stirred at 4° C. for 24 h, after which the mixture was centrifuged at 4000×g for 15 min at 4° C. The precipitate was washed to neutral pH with distilled water and stored at 4° C.
as §2

B1: Chitinase 1: chitinolytic enzyme from P. orarium, SEQ ID NO: 1, recombinant with PelB signal peptide and 6×His tag; run 19 = 2 μM alone (protein, listed as Photobacterium orarium)
chain: MAAPGTPQIAWMETDYAIVEVDQAASAYKSLITVKPAAEVPVAWQRYSGETADLWKVKLNGNVVFEQSIAPASSGAGSTTLSVAQGGQYAMTVELCSGTGAAQACTSSAATNIVVADTDGSHLDPLPMNVDANNGNYTTPANTVVGAYFVEWGVYGRKFSVDNIPAQNLTHILYGFIPICGPNESLGEIENGNSLAALNRACQGTPDYEVVIHDPWAAVQMPQPQSGHTHSTPYKGTYGQMMALKQRYPDLKIVPSVGGWTLSDPFYSFTDKAKRDIFVASVKKFLKTWKFFDGVDIDWEFPGGKGANANLGDPVNDGPAYVALMRELRVMLDELEAETGRQYELTSAIGVGYDKIDVVNYADAVQYMDYIFAMTYDFFGGWNNVPGHQTALFCGSHMSADVCNGTGVDENGVPRQGPAYTAAHGIDRLLAQGVPANKLVLGTAMYARGWTGVTEASMTDPTNPMTGTGNGMVPGSWEPGVIDYKDVVTDYINNAAVTKGYDAQAEAPWAYNPSNGNLITYDDRRSVLAKGQYVRNLGLAGLFAWEIDADNGDILNAMQDSLAGGGGNYAPVAKAGADQVVNGAASVTLDGSASSDRDGQIVSYQWTQTSGPALTLTGSDTATATVAVPEVTADTQYAFTLTVTDNAGDTATDSVTVTAKAPGSNTAPVVAVSGPATASAGDTVVLDASQSSDADGDTLTFTWTVPAGVNATVNGATVSFVADSYTVDTPLNFTVAVSDGTDSVTESVTVTVLKDGGSTGCTNAWATGGVYNSGDIVTHSGKSWKAKWWTTGEEPGTTGEWGVWEDLGAANCQIE
modifications: PelB signal peptide; 6xHis tag; Chitinase 1
notes: run 19 = 2 μM alone
With B1 the substrate conversion yield [1] was 18.3±0.5%, the Specific activity ([2]; Culture supernatant fraction) was 0.10 U/mg and the Specific activity ([2]; Dialysed elution fraction after IMAC) was 3.52 U/mg. For the same molecule, the “Relative activity, Cellulose” value [3] was 14.3 ± 5.7%, the “Relative activity, Chitin” value [3] was 100% and the “Relative activity, Chitosan” value [3] was 117.1 ± 9.1%. For the same molecule, the “growth inhibition of Fusarium oxysporum in the MIC test” value (Fusarium oxysporum) was “xx”, the “inhibition of Fusarium culmorum in the MIC assay” value (Fusarium culmorum [4]) was “showed inhibition” and the “fungal growth in germination test” value (Fusarium culmorum [5]) was “strong inhibition of fungal growth”. For the same molecule, the “plant health in germination test” value (Fusarium culmorum [5]; compared to the control) was “improved plant health”, the “% mortality” value (D. melanogaster eggs; 3 days after treatment, control 25) was 36% and the “% survival” value (D. melanogaster eggs; larvae survival 3 days after treatment, control 75) was 64%. For the same molecule, the “Relative activity, Colloidal chitin” value [6] was 159.9 ± 4.8%.
